Data taken from US20220363718A1.
*1 amine or outer side, *2 acyl side, *3 side chain or, on linkers, in order; H or OH if unused. Bridges are numbered along the chain shown (N, C = ends). [ ]: non-standard residue; d: D form. TATA = O=C(CC[*:1])N1CN(C(=O)CC[*:2])CN(C(=O)CC[*:3])C1; Trp(1-Me) = Cn1cc(C[C@H](N)C(=O)O)c2ccccc21; Arg(Me2a) = CN(C)C(=N)NCCC[C@H](N)C(=O)O; Phe(4-F) = N[C@@H](Cc1ccc(F)cc1)C(=O)O; tBuAla = CC(C)(C)C[C@H](N)C(=O)O; NMeD = CN[C@@H](CC(=O)O)C(=O)O; NMeA = CN[C@@H](C)C(=O)O

Target: Biotinylated human TSLP (human)
Sequence (chain, as listed by the source limits assumed): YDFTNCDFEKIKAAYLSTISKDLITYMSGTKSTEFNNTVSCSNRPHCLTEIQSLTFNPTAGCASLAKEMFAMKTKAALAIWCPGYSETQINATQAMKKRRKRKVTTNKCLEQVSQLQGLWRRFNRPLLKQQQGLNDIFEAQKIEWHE
Experiment: SPR, biotinylated hTSLP on streptavidin chip

Row | Kd [nM] | Binder
1 | 2.7 | Ac-C[NMeA][Trp(1-Me)][tBuAla]Q[NMeD]C[Trp(1-Me)][Arg(Me2a)]G[Phe(4-F)]C-NH2 (linker 1-7-12 via TATA) [Example 5]
2 | 6 | CQXLEDCXXGXC (not fully specified; N-term acetyl; CQ[TrpMe]LEDC[TrpMe][ADMA]G[4-FPhe]C as printed; 3 Cys on TATA) [Example 13]
